Test results as given in PMC11711090.

Tests used:
[1] = biological target: CPEB4 extracted from the brains of 6-month-old TgCPEB4Δ4 mice (human | mouse (endogenous in brain)) (UniProt Q17RY0); assay: SEC + other: SDD-AGE
[2] = biological target: nCPEB4(NTD), N-terminal domain of neuronal CPEB4 (with microexon 4) (human) (UniProt Q17RY0); assay: SEC-MALS

**Q.** With “CPEB4 extracted from the brains of 6-month-old TgCPEB4Δ4 mice (from UniProt Q17RY0 1-729; Q7TN98 1-729) (natural protein)” as the substance, how does the aggregated CPEB4 eluting in the void volume, normalized to control mice [1] read?
**A.** 10.8

**Q.** With “nCPEB4(NTD), N-terminal domain of neuronal CPEB4 (with microexon 4) (from UniProt Q17RY0-2 1-448) (domain or fragment)” as the substance, how does the stoichiometry N [2] read?
**A.** 350
